The values that follow come from patent US20140031769A1, “THERAPEUTIC AGENT FORMULATIONS FOR IMPLANTED DEVICES” (ForSight Vision4, Inc., priority 2010, published 2014).

In brackets after ≈: the same amount, converted by molar mass. Where two headings read alike, the source gives them in different places.

Data set [1] is described as follows: Solubility of therapeutic agent suspension in buffer. The data set is classed as physicochemical. The settings on record: aqueous buffer; in the buffer at 37C. The source says: The therapeutic agent stored in the reservoir of the container comprises at least one of a solid comprising the therapeutic agent, a solution comprising the therapeutic agent, a suspension comprising the therapeutic agent, particles comprising the therapeutic agent adsorbed thereon, or particles reversibly bound to the therapeutic agent. For example, reservoir may comprise a suspension of a cortico-steroid such as triamcinolone acetonide to treat inflammation of the retina.

A short description of data set [2]: Critical micelle concentration (CMC) of surfactant, surface tension with Wilhelmy plate. The data set is classed as physicochemical. An excerpt:
The CMC can be determined from a variety of techniques such as measurements of surface tension using a Wilhelmy plate. The CMC for a particular surfactant may be dependent on a variety of parameters such as the concentrations of other components in the formulation and the temperature.
Surface tension measurements may be performed with a Wilhemy plate to determine the CMC; i.e., polysorbate 20 concentration threshold for constant surface tension. Devices can then be filled with formulations containing polysorbate 20 concentrations that are 0, 1, 5 and 20 times the CMC. These devices can be subjected to drug release testing and stability assays as described in Example 2.

The conditions of data set [3]: rabbit, cited from earlier work.
For data set [4] the following is noted: RRI of 0.02 and reservoir volume of 25 uL; as described in U.S. Pub. No. 2010/0255061; cited from earlier work.
For data set [5] the following is noted: human, cited from earlier work.
For data set [6] the following is noted: monkey, cited from earlier work.

Usually solubility stands for how much of the substance goes into solution per volume. Lower therefore signals a poorly soluble substance. For `CC1(C)O[C@@H]2C[C@H]3[C@@H]4CCC5=CC(=O)C=C[C@]5(C)[C@@]4(F)[C@@H](O)C[C@]3(C)[C@]2(C(=O)CO)O1` [triamcinolone acetonide], the solubility in data set [1] is about 19 µg/mL (≈ 43.7 µM).
In the case of Polysorbate 20, the “CMC (wt %)” value in data set [2] (CMC 1e−5 M) is listed as 0.001% wt %; in data set [2] (CMC 8e−5 M) it was 0.01% wt %.
Take “Ranibizumab: antibody derivative (Fab fragment), VEGF inhibitor; active ingredient of Lucentis™”: the “half-life in the vitreous” value is listed as “two to four” in data set [3] (listed as Lucentis™); “approximately 3 days” in data set [3] (listed as ranibizumab); “about nine” in data set [5] (listed as Lucentis™); about 9 days in data set [5] (listed as ranibizumab); “two to four” in data set [6] (listed as Lucentis™); “approximately 3 days” in data set [6] (listed as ranibizumab). Moreover, in data set [4], the “half-life in device 100” value is reported as “about 100 days”.
